Measurements published in patent publication US20170355769A1 (AbbVie / Abbott, published 2017).

T1: Human full length B7-H3 (human, UniProt Q5ZPR3 29-534)
T1 construct: On 3T12 fibroblasts expressing full length human B7-H3 or on NCI-H1650 cells; signal peptide residues 1-28 stated; also called huB7-H3; CD276
T1 sequence: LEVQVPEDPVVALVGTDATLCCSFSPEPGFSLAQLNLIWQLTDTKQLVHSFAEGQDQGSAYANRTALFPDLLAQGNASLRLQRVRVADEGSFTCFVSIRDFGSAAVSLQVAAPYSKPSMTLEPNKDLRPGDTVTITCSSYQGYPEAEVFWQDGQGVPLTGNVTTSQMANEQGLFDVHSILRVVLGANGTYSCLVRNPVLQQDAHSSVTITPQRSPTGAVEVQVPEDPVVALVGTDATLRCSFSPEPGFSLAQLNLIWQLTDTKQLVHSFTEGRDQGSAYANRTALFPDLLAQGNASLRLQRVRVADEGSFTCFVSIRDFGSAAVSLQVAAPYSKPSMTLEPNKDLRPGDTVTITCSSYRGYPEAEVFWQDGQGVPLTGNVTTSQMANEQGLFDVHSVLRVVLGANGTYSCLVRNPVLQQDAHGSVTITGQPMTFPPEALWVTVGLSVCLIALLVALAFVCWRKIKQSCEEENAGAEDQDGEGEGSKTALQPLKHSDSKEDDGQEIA

T2: Human B7-H3-ECD (His tag) (human, UniProt Q5ZPR3 29-461)
T2 construct: SPR analyte; also called huB7-H3; soluble ECD of human B7-H3
T2 sequence: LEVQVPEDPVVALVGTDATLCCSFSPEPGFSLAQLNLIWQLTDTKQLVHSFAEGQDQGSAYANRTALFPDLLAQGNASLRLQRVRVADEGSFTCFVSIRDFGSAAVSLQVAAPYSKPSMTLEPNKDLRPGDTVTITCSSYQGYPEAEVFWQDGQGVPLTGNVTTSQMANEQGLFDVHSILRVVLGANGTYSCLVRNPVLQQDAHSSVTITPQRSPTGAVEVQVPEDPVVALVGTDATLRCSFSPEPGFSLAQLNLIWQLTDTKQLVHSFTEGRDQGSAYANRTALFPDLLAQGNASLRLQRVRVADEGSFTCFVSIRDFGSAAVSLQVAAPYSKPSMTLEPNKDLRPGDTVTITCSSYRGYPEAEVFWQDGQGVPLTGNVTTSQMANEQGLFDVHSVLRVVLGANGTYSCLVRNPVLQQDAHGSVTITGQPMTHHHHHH

T3: hB7-H3 (ELISA antigen of Tables 17 and 20) (human, UniProt Q5ZPR3 29-466, limits assumed)
T3 sequence: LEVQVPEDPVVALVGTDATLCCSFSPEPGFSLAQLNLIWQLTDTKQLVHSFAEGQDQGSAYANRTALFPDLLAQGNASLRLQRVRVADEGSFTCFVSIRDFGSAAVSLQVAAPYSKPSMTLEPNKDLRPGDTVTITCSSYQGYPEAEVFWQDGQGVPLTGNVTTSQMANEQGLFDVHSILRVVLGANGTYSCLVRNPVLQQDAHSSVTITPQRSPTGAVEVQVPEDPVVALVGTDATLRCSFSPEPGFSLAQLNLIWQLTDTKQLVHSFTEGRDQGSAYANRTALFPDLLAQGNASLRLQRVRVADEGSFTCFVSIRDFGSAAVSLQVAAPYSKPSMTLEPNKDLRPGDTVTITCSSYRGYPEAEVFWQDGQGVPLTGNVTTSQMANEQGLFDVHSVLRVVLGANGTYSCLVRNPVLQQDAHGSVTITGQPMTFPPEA


Experiments:
Human full length B7-H3 [1] = molecular target: T1, Human full length B7-H3; experiment: FACS, NCI-H1650 cells
Experimental: To generate purified chimeric antibodies, expression vectors were transiently transfected into HEK293 6E suspension cell cultures in a ratio of 60% to 40% light to heavy chain construct. 1 mg/ml of polyethylenimine (PEI) or 2.6 μL/mL of Expifectamine was used to transfect the cells. Cell supernatants were harvested after five days in shaking flasks, spun down to pellet cells, and filtered through 0.22 μm filters to separate IgG from culture contaminants. Antibody-containing supernatants were purified on Akta Pure using protein A mAb SelectSure. Columns were equilibrated in PBS pH 7.4, supernatants were then passed through the column and a wash was performed with PBS pH 7.4. IgG were eluted with 0.1 M acetic acid pH 3.5 and collected in several aliquots. Fractions containing IgG were pooled and dialyzed in PBS overnight at 4° C.
(§1) Cells were harvested from flasks when approximately 80% confluent using Gibco® Cell Dissociation Buffer. Cells were washed once in PBS/1% FBS (FACS buffer) then resuspended at 2.5×10⁶ cells/mL in FACS buffer. 100 μL of cells/well were added to a round bottom 96-well plate. 10 μL of a 10× concentration of mAb/ADC (final concentrations are indicated the figures). Wells were washed twice with FACS buffer and resuspended in 50 μL of secondary Ab (AlexaFluor 488) diluted in FACS buffer. The plate was incubated at 4° C. for one hour and washed twice with FACS buffer. Cells were resuspended in 100 μL of PBS/1% formaldehyde and analyzed on a Becton Dickinson LSRII flow cytometer. Data was analyzed using WinList flow cytometry analysis software.

[2] = molecular target: T2, Human B7-H3-ECD (His tag); experiment: SPR Biacore, naked mAb
From the text: Biacore T200 SPR instruments were used to measure the binding kinetics of human B7-H3 (analyte) binding to various mAbs (ligands). The assay format was Fc-based capture via immobilized anti-mouse (Fc) (Pierce 31170) or immobilized anti-human (Fc) (Pierce 31125). A standard amine coupling protocol was employed to immobilize the capture reagents via primary amines to the carboxy-methyl (CM) dextran surface of CM5 sensorchips (Biacore); capture antibodies were coupled to a level of approximately 5000RU. For binding kinetic measurements the assay buffer was HBS-EP+ (Biacore): 10 mM Hepes, pH7.4, 150 mM NaCl, 3 mM EDTA, 0.05% polysorbate 20. During the assay, all measurements were referenced against the capture surface alone. Each assay cycle consisted of the following steps: 1) Capture of ligand to approximately 50RU; 2) Analyte injection over both reference and test surface, 240 μL at 80 μL/min, after which the dissociation was monitored for 900 seconds at 80 μL/min; 3) Regeneration of capture surface with low pH glycine. […] Data were processed and fit to a 1:1 binding model using Biacore T200 Evaluation Software to determine the binding kinetic rate constants, kₐ (on-rate) and kd (off-rate), and the equilibrium dissociation constant (affinity, KD).
(§2) These variants were further characterized for binding by SPR and as ADCs conjugated to the Bcl-xL inhibitor synthon (linker warhead) CZ. […] An ADC comprising chAb3 conjugated to synthon CZ was used as a control.

Human full length B7-H3 [3] = molecular target: T1, Human full length B7-H3; experiment: FACS (Example 6 method)
Experimental: as §1, §2

Human full length B7-H3 [4] = molecular target: T1, Human full length B7-H3; experiment: FACS, cell surface human B7-H3 (as Example 6)
Experimental: as §1
Nine anti-B7-H3 chimeric antibodies were conjugated to the Bcl-xL inhibiting (Bcl-xLi) synthon CZ (Example 2.1) using conjugation Method A described below. The resulting ADCs (anti-B7-H3 antibodies conjugated to synthon CZ) were tested for binding to cell surface human B7-H3 by FACS (as described in Example 6) and for cell cytotoxicity in cell lines expressing B7-H3. […] Table 6 provides cell surface binding and cytotoxicity activity of anti-B7-H3 chimera ADCs against breast cancer cell HCC38 expressing human B7-H3.

Human full length B7-H3 [5] = molecular target: T1, Human full length B7-H3; experiment: cell-based or functional assay
[6] = molecular target: T4, Cynomolgous B7-H3 on cells (cynomolgus); experiment: FACS, 3T12 transfectants
T4 construct: whole, on cells; also called cyB7-H3; cyno B7-H3

[7] = molecular target: T3, hB7-H3 (ELISA antigen of Tables 17 and …); experiment: ELISA
Human full length B7-H3 [8] = molecular target: T1, Human full length B7-H3; experiment: FACS, 3T12 transfectants

Row | Binder | EC50 (Human full length B7-H3 [3]) | EC50 [6] | EC50 [7] | also measured
1 | chAb3 (antibody, IgG1, V domains shown, chimeric, huIgG1/k) VH: QVQLQQPGAELVKPGASVKLSCKASGYTFSSYWMHWVKQRPGQGLEWIGLIHPDSGSTNYNEMFKNKATLTVDRSSSTAYVQLSSLTSEDSAVYFCAGGGRLYFDYWGQGTTLTVSS VL: DVVMTQTPLSLPVSLGDQASISCRSSQSLVHSNGDTYLRWYLQKPGQSPKLLIYKVSNRFSGVPDRFSGSGSGTDFTLKITRVEAEDLGVYFCSQSTHVPYTFGGGTKLEIK | – | – | – | EC50 (Human full length B7-H3 [1]): 0.61 nM; Kd [2]: 19 nM
2 | chAb3-CZ (antibody, IgG1, V domains shown, synthon CZ on reduced interchain Cys) VH: QVQLQQPGAELVKPGASVKLSCKASGYTFSSYWMHWVKQRPGQGLEWIGLIHPDSGSTNYNEMFKNKATLTVDRSSSTAYVQLSSLTSEDSAVYFCAGGGRLYFDYWGQGTTLTVSS VL: DVVMTQTPLSLPVSLGDQASISCRSSQSLVHSNGDTYLRWYLQKPGQSPKLLIYKVSNRFSGVPDRFSGSGSGTDFTLKITRVEAEDLGVYFCSQSTHVPYTFGGGTKLEIK | 0.61 nM | – | – | EC50 (Human full length B7-H3 [4]): 0.65 nM
3 | huAb3v2.5-CZ (antibody, human IgG1, kappa, L234A L235A, V domains shown, synthon CZ on reduced interchain Cys) VH: EVQLVQSGAEVKKPGSSVKVSCKASGYTFSSYWMHWVRQAPGQGLEWIGLIHPESGSTNYNEMFKNRATLTVDRSTSTAYMELSSLRSEDTAVYYCAGGGRLYFDYWGQGTTVTVSS VL: DIVMTQSPLSLPVTPGEPASISCRSSQSLVHSNRDTYLRWYLQKPGQSPQLLIYKVSNRFSGVPDRFSGSGSGTDFTLKISRVEAEDVGVYYCSQSTHVPYTFGGGTKVEIKR | – | 4.86 nM | 0.13 nM | EC50 nM H1650 (tumor cell cytotoxicity) (Human full length B7-H3 [5]): 0.4 nM
4 | huAb3v6 (antibody, V domains shown, humanized IgG) VH: EVQLVQSGAEVKKPGSSVKVSCKASGYTFSSYWMHWVRQAPGQGLEWIGLIHPDSGSTNYNEMFKNRATLTVDRSTSTAYVELSSLRSEDTAVYFCAGGGRLYFDYWGQGTTVTVSS VL: DVVMTQSPLSLPVTPGEPASISCRSSQSLVHSNGDTYLRWYLQKPGQSPQLLIYKVSNRFSGVPDRFSGSGSGTDFTLKISRVEAEDVGVYYCSQSTHVPYTFGGGTKVEIK | – | – | – | Kd [2]: 0.2 nM
5 | huAb3v5-CZ (antibody, V domains shown, synthon CZ on reduced interchain Cys, ADC, DAR 3.1) VH: EVQLVQSGAEVKKPGSSVKVSCKASGYTFSSYWMHWVRQAPGQGLEWIGLIHPDSGSTNYNEMFKNRATLTVDRSTSTAYMELSSLRSEDTAVYYCAGGGRLYFDYWGQGTTVTVSS VL: DVVMTQSPLSLPVTPGEPASISCRSSQSLVHSNGDTYLRWYLQKPGQSPQLLIYKVSNRFSGVPDRFSGSGSGTDFTLKISRVEAEDVGVYYCSQSTHVPYTFGGGTKVEIK | 0.85 nM | – | – | –
6 | huAb3v6-CZ (antibody, V domains shown, synthon CZ on reduced interchain Cys, ADC, DAR 3.3) VH: EVQLVQSGAEVKKPGSSVKVSCKASGYTFSSYWMHWVRQAPGQGLEWIGLIHPDSGSTNYNEMFKNRATLTVDRSTSTAYVELSSLRSEDTAVYFCAGGGRLYFDYWGQGTTVTVSS VL: DVVMTQSPLSLPVTPGEPASISCRSSQSLVHSNGDTYLRWYLQKPGQSPQLLIYKVSNRFSGVPDRFSGSGSGTDFTLKISRVEAEDVGVYYCSQSTHVPYTFGGGTKVEIK | 1.78 nM | – | – | –
7 | huAb3v1-CZ (antibody, V domains shown, synthon CZ on reduced interchain Cys, ADC, DAR 3.6) VH: EVQLVQSGAEVKKPGSSVKVSCKASGYTFSSYWMHWVRQAPGQGLEWMGLIHPDSGSTNYNEMFKNRVTITADKSTSTAYMELSSLRSEDTAVYYCARGGRLYFDYWGQGTTVTVSS VL: DIVMTQSPLSLPVTPGEPASISCRSSQSLVHSNGDTYLRWYLQKPGQSPQLLIYKVSNRFSGVPDRFSGSGSGTDFTLKISRVEAEDVGVYYCSQSTHVPYTFGGGTKVEIK | 1.45 nM | – | – | –
8 | huAb3v2.8-CZ (antibody, V domains shown, synthon CZ on reduced interchain Cys, ADC, DAR 2.0) VH: EVQLVQSGAEVKKPGSSVKVSCKASGYTFSSYWMHWVRQAPGQGLEWIGLIHPISGSTNYNEMFKNRATLTVDRSTSTAYMELSSLRSEDTAVYYCAGGGRLYFDYWGQGTTVTVSS VL: DIVMTQSPLSLPVTPGEPASISCRSSQSLVHSNRDTYLRWYLQKPGQSPQLLIYKVSNRFSGVPDRFSGSGSGTDFTLKISRVEAEDVGVYYCSQSTHVPYTFGGGTKVEIK | – | 3.01 nM | 0.14 nM | EC50 (Human full length B7-H3 [8]): 3.94 nM
9 | huAb3v3-CZ (antibody, V domains shown, synthon CZ on reduced interchain Cys, ADC, DAR 3.6) VH: EVQLVQSGAEVKKPGSSVKVSCKASGYTFSSYWMHWVRQAPGQGLEWIGLIHPDSGSTNYNEMFKNRATLTVDRSTSTAYVELSSLRSEDTAVYFCAGGGRLYFDYWGQGTTVTVSS VL: DVVMTQSPLSLPVTPGEPASISCRSSQSLVHSNGDTYLRWYLQKPGQSPQLLIYKVSNRFSGVPDRFSGSGSGTDFTLKISRVEAEDVGVYFCSQSTHVPYTFGGGTKVEIK | 1.68 nM | – | – | –
10 | huAb3v2.3-CZ (antibody, V domains shown, synthon CZ on reduced interchain Cys, ADC, DAR 1.1) VH: EVQLVQSGAEVKKPGSSVKVSCKASGYTFSSYWMHWVRQAPGQGLEWIGLIHPWSGSTNYNEMFKNRATLTVDRSTSTAYMELSSLRSEDTAVYYCAGGGRLYFDYWGQGTTVTVSS VL: DIVMTQSPLSLPVTPGEPASISCRSSQSLVHSNQDTYLRWYLQKPGQSPQLLIYKVSNRFSGVPDRFSGSGSGTDFTLKISRVEAEDVGVYYCSQSTHVPYTFGGGTKVEIK | – | 4.03 nM | 0.11 nM | EC50 (Human full length B7-H3 [8]): 6.5 nM
